First the molecules themselves.
B1: 356 (protein)
chain: MAQGKVALEEHFAIPETLQDSAGFVPGDYWKELQHRLLDIQDTRLKLMDAHGIETMILSLAAPAVQAIPDRRKAIEIARRANDMLAEECAKRPDRFLAFAALPLQDPDAATEELQRCVNDLGFVGALVNGFSVEGDGQTPLYYDLPQYRPFWGEVEKLDVPFYLHPRNPLPQDSRIYDGHPWLLGPTWAFAQETAVHALRLMASGLFDEHPRLNIILGHLGEGLPYMMYRIDHRIAWVHEPPRYPAKRRFMDYFNENFHITTSGNFRTQTLIDAILEIGADRILFSTDWPFENIDHAADWFNATSIAEADRLKIGRTNARRLFKLDGD
modifications: Dicamba decarboxylase variant
B2: 361 (protein)
chain: MAQGKVALEEHFAIPETLQDSAGFVPGDYWKELQHRLLDIQDTRLKLMDAHGIETMILSLAAPAVQAIPDRRKAIEIARRANDFLAEECAKRPDRFLAFAALPLQDPDAATEELQRCVNDLGFVGALVNGFSQEGDGQTPLYYDLPQYRPFWGEVEKLDVPFYLHPRNPLPQDSRIYDGHPWLLGPTWAFAQETAVHALRLMASGLFDEHPRLNIILGHMGEGLPYMMYRIDHRIAWVKLPPRYPAKRRFMDYFNENFHITTSGNFRTQTLIDAILEIGADRILFSTDWPFENIDHAADWFNATSIAEADRLKIGRTNARRLFKLDGA
modifications: Dicamba decarboxylase variant
B3: 368 (protein)
chain: MAQGKVALEEHFAIPETLQDSAGFVPGDYWKELQHRLLDIQDTRLKLMDAHGIETMILSLAAPGVQAIPDRRKAIEIARRANDMLAEECAKRPDRFLAFAALPLQDVDAATEELQRCVNDLGFVGALVNGFSVEGDGQTPLYYDLPQYRPFWGEVEKLDVPFYLHPRNPLPQDSRIYDGHPWLLGPTWAFAQETAVHALRLMASGLFDEHPRLNIILGHMGEGLPYMMYRIDHRIAWVHEPPRYPAKRRFMDYFLENFHITTSGNFRTQTLIDAILEIGADRILFSTDWPFENIDHAADWFNATSIAEADRLKIGRTNARRLFKLDGD
modifications: Dicamba decarboxylase variant
B4: 360 (protein)
chain: MAQGKVALEEHFAIPETLQDSAGFVPGDYWKELQHRLLDIQDTRLKLMDAHGIETMILSLAAPAVQAIPDRRQAIEIARRANDFLAEECAKRPDRFLAFAALPLQDPDAATEELQRCVNDLGFVGALVNGFSVEGDGQTPLYYDLPQYRPFWGEVEKLDVPFYLHPRNPLPQDSRIYDGHPWLLGPTWAFAQETAVHALRLMASGLFDEHPRLNIILGHLGEGLPYMMYRIDHRIAWVKLPPRYPAKRRFMDYFNENFHITTSGNFRTQTLIDAILEIGADRILFSTDWPFENIDHAADWFNATSIAEADRLKIGRTNARRLFKLDGA
modifications: Dicamba decarboxylase variant
B5: 358 (protein)
chain: MAQGKVALEEHFAIPETLQDSAGFVPGDYWKELQHRLLDIQDTRLKLMDAHGIETMILSLAAPAVQAIPDRRKAIEIARRANDFLAEECAKRPDRFLAFAALPLQDPDAATEELQRCVNDLGFVGALVNGFSVEGDGQTPLYYDLPQYRPFWGEVEKLDVPFYLHPRNPLPQDSRIYDGHPWLLGPTWAFAQETAVHALRLMASGLFDEHPRLNIILGHMGEGLPYMMYRIDHRIAWVKLPPRYPAKRRFMDYFNENFHITTSGNFRTQTLIDAILEIGADRILFSTDWPFENIDHATAWFNATSIAEADRLKIGRTNARRLFKLDGA
modifications: Dicamba decarboxylase variant
B6: 370 (protein)
chain: MAQGKVALEEHFAIPETLQDSAGFVPGDYWKELQHRLLDIQDTRLKLMDAHGIETMILSLAAPAVQAIPDRRKAIEIARRANDFLAEECAKRPDRFLAFAALPLQDVDAASEELQRCVNDLGFVGALVNGFSVEGDGQTPLYYDLPQYRPFWGEVEKLDVPFYLHPRNPLPQDSRIYDGHPWLLGPTWAFAQETAVHALRLMASGLFDEHPRLNIILGHMGEGLPYMMYRIDHRIAWVKLPPRYPAKRRFMDYFNENFHITTSGNFRTQTLIDAILEIGADRILFSTDWPFENIDHAADWFNATSIAEADRLKIGRTNARRLFKLDGD
modifications: Dicamba decarboxylase variant
B7: 363 (protein)
chain: MAQGKVALEEHFAIPETLQDSAGFVPGDYWKELQHRLLDIQDTRLKLMDAHGIETMILSLAAPGVQAIPDRRKAIEIARRANDILAEECAKRPDRFLAFAALPLQDPDAATEELQRCVNDLGFVGALVNGFSQEGDGQTPLYYDLPQYRPFWGEVEKLDVPFYLHPRNPLPQDSRIYDGHPWLLGPTWAFAQETAVHALRLMASGLFDEHPRLNIILGHMGEGLPYMMYRIDHRIAWVQEPPRYPAKRRFMDYFNENFHITTSGNFRTQTLIDAILEIGADRILFSTDWPFENIDHAADWFNATSIAEADRVKIGRTNARRLFKLDGA
modifications: Dicamba decarboxylase variant
B8: 367 (protein)
chain: MAQGKVALEEHFAIPETLQDSAGFVPGDYWKELQHRLLDIQDTRLKLMDAHGIETMILSLAAPAVQAIPDRRKAIEIARRANDFLAEECAKRPDRFLAFAALPLQDPDAATEELQRTVNDLGFVGALVNGFSVEGDGQTPLYYDLPQYRPFWGEVEKLDVPFYLHPRNPLPQDSRIYDGHPWLLGPTWAFAQETAVHALRLMASGLFDEHPRLNIILGHMGEGLPYMMYRIDHRIAWVKLPPRYPAKRRFMDYFNENFHITTSGNFRTQTLIDAILEIGADRILFSTDWPFENIDHAADWFNATSIAEADRVKIGRTNARRLFKLDGD
modifications: Dicamba decarboxylase variant
B9: 357 (protein)
chain: MAQGKVALEEHFAIPETLQDSAGFVPGDYWKELQHRLLDIQDTRLKLMDAHGIETMILSLAAPAVQAIPDRRKAIEIARRANDFLAEECAKRPDRFLAFAALPLQDPDAASEELQRCVNDLGFVGALVNGFSVEGDGQTPLYYDLPQYRPFWGEVEKLDVPFYLHPRNPLPQDSRIYDGHPWLLGPTWAFAQETAVHALRLMASGLFDEHPRLNIILGHMGEGLPYMMYRIDHRIAWVHEPPRYPAKRRFMDYFNENFHITTSGNFRTQTLIDAILEIGADRILFSTDWPFENIDHAADWFNATSIAEADRVKIGRTNARRLFKLDLD
modifications: Dicamba decarboxylase variant
B10: 369 (protein)
chain: MAQGKVALEEHFAIPETLQDSAGFVPGDYWKELQHRLLDIQDTRLRLMDAHGIETMILSLAAPAVQAIPDRRKAIEIARRANDFLAEECAKRPDRFLAFAALPLQDPDAATEELQRCVNDLGFVGALVNGFSQEGDGQTPLYYDLPQYRPFWGEVEKLDVPFYLHPRNPLPQDSRIYDGHPWLLGPTWAFAQETAVHALRLMASGLFDEHPRLNIILGHMGEGLPYMMYRIDHRIAWVHEPPRYPAKRRFMDYFNENFHITTSGNFRTQTLIDAILEIGADRILFSTDWPFENIDHAADWFNATSIAEADRVKIGRTNARRLFKLDGA
modifications: Dicamba decarboxylase variant
B11: 365 (protein)
chain: MAQGKVALEEHFAIPETLQDSAGFVPGDYWKELQHRLLDIQDTRLKLMDAHGIETMILSLAAPAVQAIPDRRKAIEIARRANDFLAEECAKRPDRFLAFAALPLQDPDAATEELQRCVNDLGFVGALVNGFSQEGDGQTPLYYDLPQYRPFWGEVEKLDVPFYLHPRNPLPQDSRIYDGHPWLLGPTWAFAQETAVHALRLMASGLFDEHPRLNIILGHMGEGLPYMMYRIDHRIAWVHEPPRYPAKRRFMDYFNENFHITTSGNFRTQTLIDAILEIGADRILFSTDWPFENIDHAADWFNATSIAEADRVKIGRTNARRLFKLDGA
modifications: Dicamba decarboxylase variant
B12: 362 (protein)
chain: MAQGKVALEEHFAIPETLQDSAGFVPGDYWKELQHRLLDIQDTRLKLMDAHGIETMILSLAAPAVQAIPDRRKAIEIARRANDMLAEECAKRPDRFLAFAALPLQDPDAATEELQRCVNDLGFVGALVNGFSQEGDGQTPLYYDLPQYRPFWGEVEKLDVPFYLHPRNPLPQDSRIYDGHPWLLGPTWAFAQETAVHALRLMASGLFDEHPRLNIILGHMGEGLPYMMYRIDHRIAWVHEPPRYPAKRRFMDYFNENFHITTSGNFRTQTLIDAILEIGADRILFSTDWPFENIDHAADWFNATSIAEADRVKIGRTNARRLFKLDLD
modifications: Dicamba decarboxylase variant
B13: 366 (protein)
chain: MAQGKVALEEHFAIPETLQDSAGFVPGDYWKELQHRLLDIQDTRLKLMDAHGIETMILSLAAPAVQAIPDRVQAIEIARRANDFLAEECAKRPDRFLAFAALPLQDPDAATEELQRCVNDLGFVGALVNGFSQEGDGQTPLYYDLPQYRPFWGEVEKLDVPFYLHPRNPLPQDSRIYDGHPWLLGPTWAFAQETAVHALRLMASGLFDEHPRLNIILGHMGEGLPYMMYRIDHRIAWVKLPPRYPAKRRFMDYFNENFHITTSGNFRTQTLIDAILEIGADRILFSTDWPFENIDHAADWFNATSIAEADRLKIGRTNARRLFKLDLD
modifications: Dicamba decarboxylase variant
B14: 359 (protein)
chain: MAQGKVALEEHFAIPETLNDSAGFVPGDYWKELQHRLLDIQDTRLKLMDAHGIETMILSLAAPAVQAIPDRRKAIEIARRANDFLAEECAKRPDRFLAFAALPLQDPDAATEELQRCVNDLGFVGALVNGFSQEGDGQTPLYYDLPQYRPFWGEVEKLDVPFYLHPRNPLPQDSRIYDGHPWLLGPTWAFAQETAVHALRLMASGLFDEHPRLNIILGHLGEGLPYMMYRIDHRIAWVKLPPRYPAKRRFMDYFNENFHITTSGNFRTQTLIDAILEIGADRILFSTDWPFENIDHAADWFNETSIAEADRVKIGRTNARRLFKLDGA
modifications: Dicamba decarboxylase variant
B15: 364 (protein)
chain: MAQGKVALEEHFAIPETLQDSAGFVPSEYLKELQHRLLDIQDTRLKLMDAHGIETMILSLAAPAVQAIPDRRKAIEIARRANDFLAEECAKRPDRFLAFAALPLQDPDAATEELQRTVNDLGFVGALVNGFSQEGDGQTPLYYDLPQYRPFWGEVEKLDVPFYLHPRNPLPQDSRIYDGHPWLLGPTWAFAQETAVHALRLMASGLFDEHPRLNIILGHMGEGLPYMMYRIDHRIAWVKLPPRYPAKRRFMDYFNENFHITTSGNFRTQTLIDAILEIGADRILFSTDWPFENIDHAADWFNATSIAEADRVKIGRTNARRLFKLDGA
modifications: Dicamba decarboxylase variant

The assay is described as follows: DNA shuffling libraries: 14CO2 capturing assay in 384-well format, fold activity of backbone (Megatable 2). The note with it: relative to backbone SEQ ID NO: 133 (DDEC0201).
Regarding B1, the “Fold Activity” value stood at 1.0 fold.
In the case of B2, the “Fold Activity” value stood at 1.0 fold.
The same measure for B3: 0.9 fold; for B4: 1.1 fold; for B5: 0.9 fold.
The same measure for B6: 0.9 fold.
For B7, the “Fold Activity” value was determined as 0.9 fold.
B8: the “Fold Activity” value is 0.9 fold.
The same measure for B9: 1.4 fold.
Turning to B10, the “Fold Activity” value is 1.1 fold.
Take B11: the “Fold Activity” value amounted to 1.6 fold.
The same measure for B12: 0.9 fold; for B13: 0.9 fold; for B14: 1.3 fold.
The same measure for B15: 1.0 fold.

The record behind these values is patent publication US20160040149A1, “Compositions Having Dicamba Decarboxylase Activity and Methods of Use” (priority 2013, published 2016).
